What all share (details): both partners purified
Assay [1] addresses His-GRASP55 PDZ12 (Histidine-tagged PDZ tandem of GRASP55, aa 2-208) (mouse, UniProt Q99JX3 2-208). The assay can be described thus: ITC; GRASP55 protein in the cell (70-150 uM), JAM peptide in the syringe (800-2250 uM); 298 K (25 °C); 100 mM NaPO4 buffer pH 7.5; MicroCal ITC200; one-site fit.
Assay [2] concerns the target T1, GST-GRASP55 FL (GST-tagged GRASP55 full-length, aa 2-451) (mouse, UniProt Q99JX3 2-451).
T1 construct: Gateway cloning into pDEST15; also called mGRASP55 Full-length (FL); Golgi reassembly stacking protein of 55 kDa; source: E. coli BL21 (DE3), purified (Glutathione sepharose 4B); not shown: GST, N-terminal, kept
Described as above.

The target of assay [3] is GRASP55 PDZ12, untagged PDZ tandem of GRASP55 (mouse, UniProt Q99JX3 2-208). Described as above.
Assay [4] deals with T2, GST-GRASP55 FL (mGRASP55 Full-length, aa 2-451) (mouse, UniProt Q99JX3 2-451).
T2 construct: GRASP55, mouse, aa 2-451, called full-length (FL); Forward primers with and without a thrombin cleavage site were used; also called full-length GRASP55 protein; source: E. coli BL21 (DE3), purified (Glutathione sepharose 4B); not shown: GST, N-terminal, kept
The assay can be described thus: AlphaScreen or HTRF; GST fusion protein, anti-GST antibody coupled to terbium cryptate (1 nM), streptavidin-d2 (1.25 nM), biotinylated peptide (6 nM), competed with non-biotinylated peptide or the compound Graspin; 0.05 M HEPES, 0.15 M NaCl, 0.25% BSA pH 7.3, 18 h, 4°C. For orientation: Alpha assays give light when donor and acceptor beads are brought close together.

In assay [5] the target is T2, GST-GRASP55 FL (mGRASP55 Full-length, …). The experiment in a line: AlphaScreen or HTRF + ITC; the text names HTRF or ITC for the values without telling which; GST-GRASP55 FL with JAM peptides; HTRF: biotinylated peptide competed with unlabeled peptide, 0.05 M HEPES, 0.15 M NaCl, 0.25% BSA pH 7.3, 18 h, 4°C; ITC: peptide in the syringe, protein in the cell, 100 mM NaPO4 pH 7.5, 25°C.

Ends that are not written are not given here. * marks the point of attachment. Biotin = O=C1N[C@H]2[C@H](CS[C@H]2CCCCC(=O)*)N1

B1: JAM-C peptide, carboxy-terminal 19-mer (JAM-C_P19) (peptide)
peptide: NYIRTSEEGDFRHKSSFVI
notes: Junctional Adhesion Molecule-C (JAM-C), mouse, encoded by Jam3, carboxy-terminal 19 amino acids; source: synthetic peptide (Covalab, France)
Turning to B1, the Kd in assay [1] worked out at 7.1 ± 0.1 µM; in assay [3], 3.8 ± 0.1 µM. Further, the results for the “stoichiometry N” value in assay [1], in assay [2] and in assay [3] were 1, 1 and 1.1, respectively.

B2: Biotinylated 19-mer peptide of the carboxy-terminal sequence of JAM-B (peptide)
peptide: Biotin-SKVTTMSENDFKHTKSFII
notes: JAM-B, mouse, carboxy-terminal 19 amino acids; source: synthetic peptide (Covalab, France)
On to B2, for which, in assay [4], the binding result is listed as “binds”.

B3: JAM-B_P19, peptide corresponding to the C-terminal 19-mer of mouse JAM-B (unlabeled) (peptide)
peptide: SKVTTMSENDFKHTKSFII
notes: JAM-B, mouse, C-terminal 19-mer; the homologous non-biotinylated form of the printed biotinylated peptide; also called JAM-B peptide; source: synthetic peptide
With B3, the Kd in assay [5] is 4.9 µM.

B4: Unlabeled (non-biotinylated) JAM-A carboxy-terminal 19-mer peptide (peptide)
peptide: SQPSTRSEGEFKQTSSFLV
notes: JAM-A, carboxy-terminal 19 amino acids; the homologous non-biotinylated form of the printed biotinylated peptide; source: synthetic peptide
Regarding B4, in assay [5], the Kd was determined as 27 µM.

B5: Biotinylated 19-mer peptide of the carboxy-terminal sequence of JAM-C (peptide)
peptide: Biotin-NYIRTSEEGDFRHKSSFVI
notes: JAM-C, mouse, carboxy-terminal 19 amino acids; source: synthetic peptide (Covalab, France)
On to B5, for which the binding result in assay [4] is reported as “binds”.

B6: JAM-C_P19, peptide corresponding to the C-terminal 19-mer of mouse JAM-C (unlabeled) (peptide)
peptide: NYIRTSEEGDFRHKSSFVI
notes: JAM-C, mouse, C-terminal 19-mer; the homologous non-biotinylated form of the printed biotinylated peptide; also called JAM-C peptide; source: synthetic peptide
On to B6, for which the Kd in assay [5] worked out at 3.7 µM.

B7: JAM-A peptide, carboxy-terminal 19-mer (peptide)
peptide: SQPSTRSEGEFKQTSSFLV
notes: Junctional Adhesion Molecule-A (JAM-A), carboxy-terminal 19 amino acids; source: synthetic peptide (Covalab, France)
Regarding B7, in assay [1], the Kd turned out to be 14 ± 1 µM. In addition, the “stoichiometry N” value in assay [1] was found to be 0.9; in assay [2] it was 0.8.

B8: Biotinylated 19-mer peptide of the carboxy-terminal sequence of JAM-A (peptide)
peptide: Biotin-SQPSTRSEGEFKQTSSFLV
notes: JAM-A, carboxy-terminal 19 amino acids; source: synthetic peptide (Covalab, France)
For the molecule B8, the binding result in assay [4] is “binds”.

B9: JAM-B peptide, carboxy-terminal 19-mer (JAM-B_P19) (peptide)
peptide: SKVTTMSENDFKHTKSFII
notes: Junctional Adhesion Molecule-B (JAM-B), mouse, carboxy-terminal 19 amino acids; source: synthetic peptide (Covalab, France)
Regarding B9, in assay [1], the Kd came to 1.2 ± 0.1 µM and the “stoichiometry N” value came to 1.3. In addition, in assay [2], the “stoichiometry N” value came out at 0.9.

The term Kd denotes the constant that tells how readily two partners part at equilibrium. The stoichiometry N is a count of units in the complex or per binding partner.
